Measurements reported in patent US20200317817A1 (XOMA US, published 2020).
Positions count from the first letter of the chain named.

Columns and labels:
[1] = biological target: T1, recombinant N-terminal extracellular domain of the human PTH1R receptor (human, UniProt Q03431 27-188, limits assumed); test: SPR, IgG captured, ECD injected
T1 construct: domain: N-terminal extracellular domain; Bought reagent; also called N-ECD PTH1R; PTH1R N-terminal ECD
T1 sequence (looked up): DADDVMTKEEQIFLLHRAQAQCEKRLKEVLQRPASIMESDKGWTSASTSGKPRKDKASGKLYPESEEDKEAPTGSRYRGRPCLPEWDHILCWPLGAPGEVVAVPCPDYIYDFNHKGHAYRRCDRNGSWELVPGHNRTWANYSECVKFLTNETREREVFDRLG
Protocol: An anti-human IgG-Fc CMS sensor chip (GE Healthcare) was prepared using standard amine coupling as described by the manufacturer's protocol for the capture Ab on a BIACORE 4000 system (GE Healthcare). Briefly, the chip surface was activated with a 10 minute injection at 10 μL/minute of a freshly mixed 1:1 solution of 0.1 M N-Hydroxysuccinimide (NHS) and 0.4 M 1-Ethyl-3-(3-dimethylaminopropyl) carbodiimide hydrochloride (EDC). Following the activation injection, 15 ug/mL anti-human IgG-Fc antibody in acetate pH 4.5 was injected at 10 μL/minute for 10 minutes to achieve a high density capture surface. 7 minutes of 1M Ethanolamine hydrochloride-NaOH pH 8.5 was injected to block the surface. The NHS, EDC, and Ethanolamine used were from the BIACORE Amine Coupling Kit.
Kinetic Analysis was performed using HBS-EP+(Teknova) with 2.5 mg/mL BSA (Sigma Aldrich, St. Louis Mo.). Antibodies were diluted to 0.5 μg/mL and captured to achieve a surface density of 100 to 200 RU. […] Injections were performed at 30 μL/minute for 240 seconds with a 360 second dissociation time. Regeneration was then performed with one 60 second injection 3M MgCl.
The data were analyzed using BIACORE 4000 Evaluation Software and was double referenced by subtracting both the blank flow cell data and the averaged bracketing blank injections. The data was fit by simultaneously fitting the an off-rate (kd) and on-rate (kₐ), and calculating the KD as KD=kd/kₐ.

[2] = biological target: T2, human PTH1R on Saos-2 cells (endogenous) (human, UniProt Q03431 27-593); test: cell-based or functional assay
T2 sequence (looked up): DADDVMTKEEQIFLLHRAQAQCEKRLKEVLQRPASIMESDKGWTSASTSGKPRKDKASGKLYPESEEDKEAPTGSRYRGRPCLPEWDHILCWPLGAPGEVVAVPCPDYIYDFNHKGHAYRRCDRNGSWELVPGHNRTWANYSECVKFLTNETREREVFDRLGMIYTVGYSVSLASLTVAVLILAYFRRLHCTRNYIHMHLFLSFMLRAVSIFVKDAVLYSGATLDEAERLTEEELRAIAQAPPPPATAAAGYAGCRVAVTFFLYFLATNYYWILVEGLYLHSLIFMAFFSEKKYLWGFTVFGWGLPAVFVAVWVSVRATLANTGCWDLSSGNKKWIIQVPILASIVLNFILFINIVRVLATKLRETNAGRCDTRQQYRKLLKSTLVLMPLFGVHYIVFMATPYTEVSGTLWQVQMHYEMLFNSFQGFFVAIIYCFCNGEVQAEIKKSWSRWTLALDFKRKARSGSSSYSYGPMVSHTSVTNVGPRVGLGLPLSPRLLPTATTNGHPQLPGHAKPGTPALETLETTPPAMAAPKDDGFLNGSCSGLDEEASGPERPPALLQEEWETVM

[3] = biological target: T3, rat PTH1R on UMR106 cells (rat, UniProt P25961 27-591); test: cell-based or functional assay
T3 sequence (looked up): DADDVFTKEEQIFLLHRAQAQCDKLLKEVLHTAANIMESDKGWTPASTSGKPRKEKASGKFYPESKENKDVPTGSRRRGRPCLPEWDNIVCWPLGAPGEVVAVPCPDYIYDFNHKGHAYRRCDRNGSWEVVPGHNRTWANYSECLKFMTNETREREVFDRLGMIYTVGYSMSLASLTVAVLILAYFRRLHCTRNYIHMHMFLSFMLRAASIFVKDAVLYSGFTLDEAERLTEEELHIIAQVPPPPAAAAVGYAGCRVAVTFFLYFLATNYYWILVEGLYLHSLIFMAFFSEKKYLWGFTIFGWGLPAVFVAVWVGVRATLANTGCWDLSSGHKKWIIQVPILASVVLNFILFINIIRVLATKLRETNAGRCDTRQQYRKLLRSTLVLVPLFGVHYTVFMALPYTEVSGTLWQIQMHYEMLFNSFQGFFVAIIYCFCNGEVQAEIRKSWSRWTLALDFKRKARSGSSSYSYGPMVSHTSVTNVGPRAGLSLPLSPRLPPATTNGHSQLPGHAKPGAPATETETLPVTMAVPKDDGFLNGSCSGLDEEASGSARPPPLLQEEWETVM

[4] = biological target: T2, human PTH1R on Saos-2 cells (endogenous); test: cell-based or functional assay; remark: listed apart in the source
[5] = biological target: T4, human PTH1R overexpressed on CHO cells (human, UniProt Q03431 27-593); test: cell-based or functional assay
T4 sequence (looked up): T2 sequence (looked up)

[6] = biological target: T5, mouse PTH1R overexpressed on CHO cells (mouse, UniProt P41593 27-591); test: cell-based or functional assay
T5 sequence (looked up): T3 sequence (looked up) with S58P, P497L, T518I, T520N, L523I, A528T

B1: XPA.85.326 (antibody, V domains shown)
VH: QMQLVQSGAEVKKPGSSVKVSCKASGGTFSSYAISWVRQAPGQGLEWMGGIIPIFGTANYAQKFQGRVTITADESTSTAYMELSSLRSEDTAVYYCARGYVVARLWGQGTLVTVSS
VL: DIVMTQTPLSLSVTPGQPASISCKSSQSLLHIDGLTYLYWYLQKPGQPPQLLIYEVSHRFSGVSDKFSGSGSGTDFTLTISRVEAEDVGVYYCMQSLHLPITFGQGTRLEIK
notes: Light-chain-shuffled variant of XPA.85.012
- Kd [1]: 0.19 nM
- koff [1]: 7.3e-05 s⁻¹
- kon [1]: 380000 M⁻¹ s⁻¹

B2: XPA.85.327 (antibody, V domains shown)
VH: B1 VH
VL: B1 VL with S22T, L35N, K44R, V56I, H58N, S64P, K66R, T79K, L99F
notes: Light-chain-shuffled variant of XPA.85.012; also called XPA.327
- fold shift of the PTH (1-34) dose response, M-CSF secretion by Saos-2 cells [2]: > 10 fold
- Kd [1]: 0.15 nM
- koff [1]: 0.00011 s⁻¹
- kon [1]: 740000 M⁻¹ s⁻¹

B3: XPA.85.346 (antibody, V domains shown)
VH: B1 VH
VL: B1 VL with S22T, L35K, Y41F, H58N, S64P, K66R, T79K, V90L
notes: as for B1
- fold shift of the PTH (1-34) dose response, M-CSF secretion by Saos-2 cells [2]: > 10 fold
- % inhibition of cAMP accumulation at 1 µM PTH(1-34), 267 nM IgG [3]: 40%
- % inhibition of cAMP accumulation at 1 µM PTHrP(1-34), 267 nM IgG [3]: 31%
- % inhibition of cAMP accumulation at 1 µM PTH(1-34), 267 nM IgG [4]: 72%
- % inhibition of cAMP accumulation at 1 µM PTHrP(1-34), 267 nM IgG [4]: 75%
- IC50, inhibition of PTH(1-34)-induced cAMP accumulation (curve does not reach a plateau) [5]: 29.9 nM
- IC50, inhibition of PTHrP(1-34)-induced cAMP accumulation [5]: 14.6 nM
- IC50, inhibition of PTHrP(1-34)-induced cAMP accumulation [6]: 3.57 nM
- Kd [1]: 0.31 nM
- koff [1]: 0.00014 s⁻¹
- kon [1]: 450000 M⁻¹ s⁻¹

B4: XPA.85.331 (antibody, V domains shown)
VH: B1 VH
VL: DVVMTQSPLSLPVTPGEPASISCRSSQSLLHIDGFNYLQWYLQKPGQSPQLLVHLGSFRASGVPDRFSGSGSGTDFTLEISRVEAEDVGLYYCMQGLQTPPTFGPGTKVEIK
notes: as for B1
- fold shift of the PTH (1-34) dose response, M-CSF secretion by Saos-2 cells [2]: > 10 fold
- % inhibition of cAMP accumulation at 1 µM PTH(1-34), 267 nM IgG [3]: 42%
- % inhibition of cAMP accumulation at 1 µM PTHrP(1-34), 267 nM IgG [3]: 37%
- % inhibition of cAMP accumulation at 1 µM PTH(1-34), 267 nM IgG [4]: 67%
- % inhibition of cAMP accumulation at 1 µM PTHrP(1-34), 267 nM IgG [4]: 72%
- IC50, inhibition of PTH(1-34)-induced cAMP accumulation [5]: 14.2 nM
- IC50, inhibition of PTHrP(1-34)-induced cAMP accumulation [5]: 8.86 nM
- IC50, inhibition of PTHrP(1-34)-induced cAMP accumulation [6]: 3.2 nM
- Kd [1]: 0.22 nM
- koff [1]: 0.00035 s⁻¹
- kon [1]: 1.6e+06 M⁻¹ s⁻¹

B5: XPA.85.345 (antibody, V domains shown)
VH: B1 VH
VL: ETTLTQSPAFMSASVGDRVTITCQASQDINNFLNWYQQKPGKAPKFLIYDASNLEKGVPSRFSGRGSGTEFTLTISSLQPEDIATYYCQQYRDFPLTFGQGTRLEIK
notes: as for B1
- IC50, inhibition of PTH(1-34)-induced cAMP accumulation [5]: 14.2 nM
- IC50, inhibition of PTHrP(1-34)-induced cAMP accumulation [5]: 12.1 nM
- IC50, inhibition of PTHrP(1-34)-induced cAMP accumulation [6]: 2.53 nM
- Kd [1]: 0.56 nM
- koff [1]: 0.0013 s⁻¹
- kon [1]: 2.3e+06 M⁻¹ s⁻¹

B6: XPA.85.342 (antibody, V domains shown)
VH: B1 VH
VL: B5 VL with A9T
notes: as for B1
- % inhibition of cAMP accumulation at 1 µM PTH(1-34), 267 nM IgG [3]: 6%
- % inhibition of cAMP accumulation at 1 µM PTHrP(1-34), 267 nM IgG [3]: 0%
- % inhibition of cAMP accumulation at 1 µM PTH(1-34), 267 nM IgG [4]: 0%
- % inhibition of cAMP accumulation at 1 µM PTHrP(1-34), 267 nM IgG [4]: 17%
- Kd [1]: 0.52 nM
- koff [1]: 0.0012 s⁻¹
- kon [1]: 2.3e+06 M⁻¹ s⁻¹

B7: XPA.85.288 (antibody, V domains shown)
VH: B1 VH
VL: B1 VL with I2V, L35K, P45S, P48S, H58N, S64P, K66T, T79K, L99F
notes: also called Ab288
- fold shift of the PTH (1-34) dose response, M-CSF secretion by Saos-2 cells [2]: > 10 fold
- % inhibition of cAMP accumulation at 1 µM PTH(1-34), 267 nM IgG [3]: 73%
- % inhibition of cAMP accumulation at 1 µM PTHrP(1-34), 267 nM IgG [3]: 45%
- % inhibition of cAMP accumulation at 1 µM PTH(1-34), 267 nM IgG [4]: 79%
- % inhibition of cAMP accumulation at 1 µM PTHrP(1-34), 267 nM IgG [4]: 79%
- Kd [1]: 0.18 nM
- koff [1]: 0.00014 s⁻¹
- kon [1]: 780000 M⁻¹ s⁻¹

B8: XPA.85.347 (antibody, V domains shown)
VH: B1 VH
VL: DIVMTQTPLSLSVTPGQPASISCKSSQSLFHDHGRTHLSWYLQKPGQPPQLLIFEASNRFSGVPDRFSGSGSGTDFTLKISRVEAEDVGVYYCMQGIHLPPAFGGGTKLEIK
notes: as for B1
- IC50, inhibition of PTHrP(1-34)-induced cAMP accumulation [6]: 2.9 nM
- Kd [1]: 0.87 nM
- koff [1]: 0.00077 s⁻¹
- kon [1]: 880000 M⁻¹ s⁻¹
